Source: article PMC2945414

Columns and labels:
[1] = target: PKA (RIIα), regulatory subunit of type II cAMP-dependent protein kinase, residues 2-44; assay: ITC
FLAG-tagged PKA (RIIα) = FLAG-tagged PKA (RIIα) (UniProt P13861); assay: co-IP
[2] = target: PKA (RIIα) (Homo sapiens) (UniProt P13861); settings: cited from earlier work
PKA (RIα) (Homo sapiens) = PKA (RIα) (Homo sapiens) (UniProt P10644); settings: cited from earlier work
PKA (RIα) (Homo sapiens), sequence (P10644 whole entry): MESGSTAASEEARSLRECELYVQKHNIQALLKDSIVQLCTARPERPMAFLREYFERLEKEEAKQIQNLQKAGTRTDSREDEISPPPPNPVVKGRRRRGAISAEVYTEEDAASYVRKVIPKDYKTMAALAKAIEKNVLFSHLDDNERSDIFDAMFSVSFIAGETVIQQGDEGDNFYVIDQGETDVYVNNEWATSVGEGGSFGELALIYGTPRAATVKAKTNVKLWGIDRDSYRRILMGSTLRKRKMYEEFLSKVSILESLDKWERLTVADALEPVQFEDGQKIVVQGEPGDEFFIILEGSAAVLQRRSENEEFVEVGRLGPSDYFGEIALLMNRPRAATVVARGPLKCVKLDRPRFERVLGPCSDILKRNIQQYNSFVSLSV

D-AKAP2, sequence (O43572 29-662): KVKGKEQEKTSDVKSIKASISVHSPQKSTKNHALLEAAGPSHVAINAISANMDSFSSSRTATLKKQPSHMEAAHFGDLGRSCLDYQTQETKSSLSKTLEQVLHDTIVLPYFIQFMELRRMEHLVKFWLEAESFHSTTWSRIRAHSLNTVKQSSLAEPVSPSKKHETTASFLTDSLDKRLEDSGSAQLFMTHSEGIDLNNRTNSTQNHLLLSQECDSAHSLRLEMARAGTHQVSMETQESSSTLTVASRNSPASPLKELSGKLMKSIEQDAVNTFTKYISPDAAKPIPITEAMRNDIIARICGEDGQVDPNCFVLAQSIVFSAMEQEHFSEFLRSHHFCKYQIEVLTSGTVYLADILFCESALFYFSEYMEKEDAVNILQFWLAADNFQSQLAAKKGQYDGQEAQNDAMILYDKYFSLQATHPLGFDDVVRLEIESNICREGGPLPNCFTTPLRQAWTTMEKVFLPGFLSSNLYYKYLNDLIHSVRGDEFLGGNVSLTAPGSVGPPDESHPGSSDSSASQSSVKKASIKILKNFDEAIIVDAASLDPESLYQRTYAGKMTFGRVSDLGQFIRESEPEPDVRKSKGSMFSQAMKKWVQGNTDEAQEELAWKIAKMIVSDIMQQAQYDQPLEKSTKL

Row | Kd [1] | Substance | other results
1 | 67 nM | AML1-ETO Nervy Homology Region 3 (NHR3) domain, residues A585-N654 (domain or fragment) | stoichiometry N (NHR3 : PKA (RIIα) chains (1:2)) [1]: 0.5
2 |  | AML1-ETO V601A (natural protein) | fold decrease of the interaction relative to AML1-ETO (FLAG-tagged PKA (RIIα)): 2 fold
3 |  | D-AKAP2 (from UniProt O43572) | Kd [2]: 2 nM; Kd (PKA (RIα) (Homo sapiens)): 48 nM
4 | 256 nM | Trx-NHR3(585-615) (domain or fragment) | 
5 | 14000 nM | Trx-NHR3(585-615) V601A (domain or fragment) | 
6 | 383 nM | Trx-NHR3(585-615) V604A (domain or fragment) | 
7 | 909 nM | Trx-NHR3(585-615) W594A (domain or fragment) | 
8 | 128 nM | Trx-NHR3(585-654) (domain or fragment) | 
